Measurements: WO2013125221A1
Where no end group is shown, it is not given here.

Columns and labels:
[1] = biological target: Herceptin scFv antibody (His-tagged, self-prepared); assay: peptide magnetic bead immunoprecipitation, SDS-PAGE / anti-His blot, band intensity semi-quantified
[2] = biological target: Herceptin scFv antibody (His-tagged, self-prepared); assay: peptide magnetic bead immunoprecipitation, SDS-PAGE / anti-His blot, semi-quantitative

| Binder | Herceptin scFv antibody recovery rate [1] [%] | Herceptin scFv antibody recovery rate [2] [%] |
| --- | --- | --- |
| FHRSHWYQTWVP (also: biotinylated (site not given here)) [code 166 peptide] | 30 |  |
| WSEYDIPTPQIP (also: biotinylated (site not given here)) [code 4 peptide] | 30 | 23 |
